One block for each molecule: values may come before it.
Key:
His-ZapA (E. coli) [1] = target: His-ZapA (E. coli) (UniProt P0ADS2); test: AUC
His-ZapA (E. coli) [2] = target: His-ZapA (E. coli) (UniProt P0ADS2); test: composition-gradient static light scattering
[3] = target: Escherichia coli FtsZ (E. coli) (UniProt P0A9A6); test: co-sedimentation
ZapA (Escherichia coli) = ZapA (Escherichia coli) (UniProt P0ADS2); conditions: cited from earlier work
[4] = target: the molecule itself; test: negative-stain electron microscopy

stoichiometry N (His-ZapA (E. coli) [1]): 4
stoichiometry N (His-ZapA (E. coli) [2]): 4
Molecule: His-ZapA (from UniProt P0ADS2 1-109) (natural protein)

stoichiometry N [3]: 1
Molecule: ZapA (His tag removed by enterokinase digestion of His-ZapA) (from UniProt P0ADS2 1-109) (natural protein)

Molecule: ZapA (from UniProt P0ADS2)
Kd (ZapA (Escherichia coli)): 320 nM

B1: Escherichia coli FtsZ (natural protein)
chain: MFEPMELTNDAVIKVIGVGGGGGNAVEHMVRERIEGVEFFAVNTDAQALRKTAVGQTIQIGSGITKGLGAGANPEVGRNAADEDRDALRAALEGADMVFIAAGMGGGTGTGAAPVVAEVAKDLGILTVAVVTKPFNFEGKKRMAFAEQGITELSKHVDSLITIPNDKLLKVLGRGISLLDAFGAANDVLKGAVQGIAELITRPGLMNVDFADVRTVMSEMGYAMMGSGVASGEDRAEEAAEMAISSPLLEDIDLSGARGVLVNITAGFDLRLDEFETVGNTIRAFASDNATVVIGTSLDPDMNDELRVTVVATGIGMDKRPEITLVTNKQVQQPVMDRYQQHGMAPLTQEQKPVAKVVNDNAPQTAKEPDYLDIPAFLRKQAD
binding result [4]: binds

— publication PMC2778355 (Biochemistry, 2009)
